# Laboratory results taken from patent publication US20230416330A1, “Optimized GIP Peptide Analogues” (Antag Therapeutics ApS, priority 2019, published 2023).
# Starred links: 1 amine or outer side, 2 acyl side, 3 side chain; linkers in the order of their positions; H or OH if unused. Non-standard residues stand in square brackets, D forms with d. Groups on a side chain read outwards from the residue. No end group written: not given here. *: point of attachment. C18 diacid = O=C(O)CCCCCCCCCCCCCCCCC(=O)*; C16 diacid = O=C(O)CCCCCCCCCCCCCCC(=O)*; γGlu = O=C(O)[C@H](CCC(=O)[*:2])N[*:1]; Glutaryl = O=C(CCCC(=O)[*:2])[*:1]; Nle = CCCC[C@H](N)C(=O)O; AEEA = NCCOCCOCC(=O)O; Aib = CC(C)(N)C(=O)O
# Target: T1, human GIP receptor (human, UniProt P48546 22-466)
# T1 sequence (looked up): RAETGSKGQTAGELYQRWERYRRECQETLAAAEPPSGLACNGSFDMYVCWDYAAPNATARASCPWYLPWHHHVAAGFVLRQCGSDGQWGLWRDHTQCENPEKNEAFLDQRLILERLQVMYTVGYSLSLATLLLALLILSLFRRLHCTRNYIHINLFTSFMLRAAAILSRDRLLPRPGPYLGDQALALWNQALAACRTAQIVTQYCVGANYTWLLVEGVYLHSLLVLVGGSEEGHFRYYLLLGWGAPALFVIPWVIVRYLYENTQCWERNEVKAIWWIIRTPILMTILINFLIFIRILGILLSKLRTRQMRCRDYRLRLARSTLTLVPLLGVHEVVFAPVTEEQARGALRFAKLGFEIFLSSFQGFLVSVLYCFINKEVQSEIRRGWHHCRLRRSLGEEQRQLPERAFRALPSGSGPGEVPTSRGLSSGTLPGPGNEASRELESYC
# Assay: cell-based or functional assay
Binder,"nM (Kb, Gaddum assay, cAMP) [nM]","pKb (Gaddum assay, cAMP)"
EGTFISEYSI[Aib]LEKIK([AEEA-AEEA-γGlu-C18 diacid])QQDFVEWLLAQKPSSGAPPPS-OH (N-terminus assumed; SMILES CC[C@H](C)[C@H](NC(=O)[C@H](CCCCN)NC(=O)[C@H](CCC(=O)O)NC(=O)[C@H](CC(C)C)NC(=O)C(C)(C)NC(=O)[C@@H](NC(=O)[C@H](CO)NC(=O)[C@H](Cc1ccc(O)cc1)NC(=O)[C@H](CCC(=O)O)NC(=O)[C@H](CO)NC(=O)[C@@H](NC(=O)[C@H](Cc1ccccc1)NC(=O)[C@@H](NC(=O)CNC(=O)[C@@H](N)CCC(=O)O)[C@@H](C)O)[C@@H](C)CC)[C@@H](C)CC)C(=O)N[C@@H](CCCCNC(=O)COCCOCCNC(=O)COCCOCCNC(=O)CC[C@H](NC(=O)CCCCCCCCCCCCCCCCC(=O)O)C(=O)O)C(=O)N[C@@H](CCC(N)=O)C(=O)N[C@@H](CCC(N)=O)C(=O)N[C@@H](CC(=O)O)C(=O)N[C@@H](Cc1ccccc1)C(=O)N[C@H](C(=O)N[C@@H](CCC(=O)O)C(=O)N[C@@H](Cc1c[nH]c2ccccc12)C(=O)N[C@@H](CC(C)C)C(=O)N[C@@H](CC(C)C)C(=O)N[C@@H](C)C(=O)N[C@@H](CCC(N)=O)C(=O)N[C@@H](CCCCN)C(=O)N1CCC[C@H]1C(=O)N[C@@H](CO)C(=O)N[C@@H](CO)C(=O)NCC(=O)N[C@@H](C)C(=O)N1CCC[C@H]1C(=O)N1CCC[C@H]1C(=O)N1CCC[C@H]1C(=O)N[C@@H](CO)C(=O)O)C(C)C) [AT754],2.2,8.7
Glutaryl-GTFISEYSI[Aib][Nle]EKIK(C16 diacid)QQEFVEWLLAQKPSSGAPPPS-OH (SMILES CCCC[C@H](NC(=O)C(C)(C)NC(=O)[C@@H](NC(=O)[C@H](CO)NC(=O)[C@H](Cc1ccc(O)cc1)NC(=O)[C@H](CCC(=O)O)NC(=O)[C@H](CO)NC(=O)[C@@H](NC(=O)[C@H](Cc1ccccc1)NC(=O)[C@@H](NC(=O)CNC(=O)CCCC(=O)O)[C@@H](C)O)[C@@H](C)CC)[C@@H](C)CC)C(=O)N[C@@H](CCC(=O)O)C(=O)N[C@@H](CCCCN)C(=O)N[C@H](C(=O)N[C@@H](CCCCNC(=O)CCCCCCCCCCCCCCC(=O)O)C(=O)N[C@@H](CCC(N)=O)C(=O)N[C@@H](CCC(N)=O)C(=O)N[C@@H](CCC(=O)O)C(=O)N[C@@H](Cc1ccccc1)C(=O)N[C@H](C(=O)N[C@@H](CCC(=O)O)C(=O)N[C@@H](Cc1c[nH]c2ccccc12)C(=O)N[C@@H](CC(C)C)C(=O)N[C@@H](CC(C)C)C(=O)N[C@@H](C)C(=O)N[C@@H](CCC(N)=O)C(=O)N[C@@H](CCCCN)C(=O)N1CCC[C@H]1C(=O)N[C@@H](CO)C(=O)N[C@@H](CO)C(=O)NCC(=O)N[C@@H](C)C(=O)N1CCC[C@H]1C(=O)N1CCC[C@H]1C(=O)N1CCC[C@H]1C(=O)N[C@@H](CO)C(=O)O)C(C)C)[C@@H](C)CC) [AT755],0.23,9.6
Glutaryl-GTFISEYSI[Aib]LEKIK([AEEA-AEEA-γGlu-C18 diacid])QQEFVEWLLAQKPSSGAPPPS-OH (SMILES CC[C@H](C)[C@H](NC(=O)[C@H](CCCCN)NC(=O)[C@H](CCC(=O)O)NC(=O)[C@H](CC(C)C)NC(=O)C(C)(C)NC(=O)[C@@H](NC(=O)[C@H](CO)NC(=O)[C@H](Cc1ccc(O)cc1)NC(=O)[C@H](CCC(=O)O)NC(=O)[C@H](CO)NC(=O)[C@@H](NC(=O)[C@H](Cc1ccccc1)NC(=O)[C@@H](NC(=O)CNC(=O)CCCC(=O)O)[C@@H](C)O)[C@@H](C)CC)[C@@H](C)CC)C(=O)N[C@@H](CCCCNC(=O)COCCOCCNC(=O)COCCOCCNC(=O)CC[C@H](NC(=O)CCCCCCCCCCCCCCCCC(=O)O)C(=O)O)C(=O)N[C@@H](CCC(N)=O)C(=O)N[C@@H](CCC(N)=O)C(=O)N[C@@H](CCC(=O)O)C(=O)N[C@@H](Cc1ccccc1)C(=O)N[C@H](C(=O)N[C@@H](CCC(=O)O)C(=O)N[C@@H](Cc1c[nH]c2ccccc12)C(=O)N[C@@H](CC(C)C)C(=O)N[C@@H](CC(C)C)C(=O)N[C@@H](C)C(=O)N[C@@H](CCC(N)=O)C(=O)N[C@@H](CCCCN)C(=O)N1CCC[C@H]1C(=O)N[C@@H](CO)C(=O)N[C@@H](CO)C(=O)NCC(=O)N[C@@H](C)C(=O)N1CCC[C@H]1C(=O)N1CCC[C@H]1C(=O)N1CCC[C@H]1C(=O)N[C@@H](CO)C(=O)O)C(C)C) [AT705],0.23,9.6
Glutaryl-GTFISEYSI[Aib][Nle]EKIK([AEEA-AEEA-γGlu-C18 diacid])QQEFVEWLLAQKPSSGAPPPS-OH (SMILES CCCC[C@H](NC(=O)C(C)(C)NC(=O)[C@@H](NC(=O)[C@H](CO)NC(=O)[C@H](Cc1ccc(O)cc1)NC(=O)[C@H](CCC(=O)O)NC(=O)[C@H](CO)NC(=O)[C@@H](NC(=O)[C@H](Cc1ccccc1)NC(=O)[C@@H](NC(=O)CNC(=O)CCCC(=O)O)[C@@H](C)O)[C@@H](C)CC)[C@@H](C)CC)C(=O)N[C@@H](CCC(=O)O)C(=O)N[C@@H](CCCCN)C(=O)N[C@H](C(=O)N[C@@H](CCCCNC(=O)COCCOCCNC(=O)COCCOCCNC(=O)CC[C@H](NC(=O)CCCCCCCCCCCCCCCCC(=O)O)C(=O)O)C(=O)N[C@@H](CCC(N)=O)C(=O)N[C@@H](CCC(N)=O)C(=O)N[C@@H](CCC(=O)O)C(=O)N[C@@H](Cc1ccccc1)C(=O)N[C@H](C(=O)N[C@@H](CCC(=O)O)C(=O)N[C@@H](Cc1c[nH]c2ccccc12)C(=O)N[C@@H](CC(C)C)C(=O)N[C@@H](CC(C)C)C(=O)N[C@@H](C)C(=O)N[C@@H](CCC(N)=O)C(=O)N[C@@H](CCCCN)C(=O)N1CCC[C@H]1C(=O)N[C@@H](CO)C(=O)N[C@@H](CO)C(=O)NCC(=O)N[C@@H](C)C(=O)N1CCC[C@H]1C(=O)N1CCC[C@H]1C(=O)N1CCC[C@H]1C(=O)N[C@@H](CO)C(=O)O)C(C)C)[C@@H](C)CC) [AT706],0.26,9.6
Glutaryl-GTFISEYSIALEKIK([AEEA-AEEA-γGlu-C18 diacid])QQEFVEWLLAQKPSSGAPPPS-OH (SMILES CC[C@H](C)[C@H](NC(=O)[C@H](CO)NC(=O)[C@H](Cc1ccc(O)cc1)NC(=O)[C@H](CCC(=O)O)NC(=O)[C@H](CO)NC(=O)[C@@H](NC(=O)[C@H](Cc1ccccc1)NC(=O)[C@@H](NC(=O)CNC(=O)CCCC(=O)O)[C@@H](C)O)[C@@H](C)CC)C(=O)N[C@@H](C)C(=O)N[C@@H](CC(C)C)C(=O)N[C@@H](CCC(=O)O)C(=O)N[C@@H](CCCCN)C(=O)N[C@H](C(=O)N[C@@H](CCCCNC(=O)COCCOCCNC(=O)COCCOCCNC(=O)CC[C@H](NC(=O)CCCCCCCCCCCCCCCCC(=O)O)C(=O)O)C(=O)N[C@@H](CCC(N)=O)C(=O)N[C@@H](CCC(N)=O)C(=O)N[C@@H](CCC(=O)O)C(=O)N[C@@H](Cc1ccccc1)C(=O)N[C@H](C(=O)N[C@@H](CCC(=O)O)C(=O)N[C@@H](Cc1c[nH]c2ccccc12)C(=O)N[C@@H](CC(C)C)C(=O)N[C@@H](CC(C)C)C(=O)N[C@@H](C)C(=O)N[C@@H](CCC(N)=O)C(=O)N[C@@H](CCCCN)C(=O)N1CCC[C@H]1C(=O)N[C@@H](CO)C(=O)N[C@@H](CO)C(=O)NCC(=O)N[C@@H](C)C(=O)N1CCC[C@H]1C(=O)N1CCC[C@H]1C(=O)N1CCC[C@H]1C(=O)N[C@@H](CO)C(=O)O)C(C)C)[C@@H](C)CC) [AT707],0.28,9.6
Glutaryl-GTFISEYSI[Aib]MEKIK([AEEA-AEEA-γGlu-C18 diacid])QQEFVEWLLAQKPSSGAPPPS-OH (SMILES CC[C@H](C)[C@H](NC(=O)[C@H](CCCCN)NC(=O)[C@H](CCC(=O)O)NC(=O)[C@H](CCSC)NC(=O)C(C)(C)NC(=O)[C@@H](NC(=O)[C@H](CO)NC(=O)[C@H](Cc1ccc(O)cc1)NC(=O)[C@H](CCC(=O)O)NC(=O)[C@H](CO)NC(=O)[C@@H](NC(=O)[C@H](Cc1ccccc1)NC(=O)[C@@H](NC(=O)CNC(=O)CCCC(=O)O)[C@@H](C)O)[C@@H](C)CC)[C@@H](C)CC)C(=O)N[C@@H](CCCCNC(=O)COCCOCCNC(=O)COCCOCCNC(=O)CC[C@H](NC(=O)CCCCCCCCCCCCCCCCC(=O)O)C(=O)O)C(=O)N[C@@H](CCC(N)=O)C(=O)N[C@@H](CCC(N)=O)C(=O)N[C@@H](CCC(=O)O)C(=O)N[C@@H](Cc1ccccc1)C(=O)N[C@H](C(=O)N[C@@H](CCC(=O)O)C(=O)N[C@@H](Cc1c[nH]c2ccccc12)C(=O)N[C@@H](CC(C)C)C(=O)N[C@@H](CC(C)C)C(=O)N[C@@H](C)C(=O)N[C@@H](CCC(N)=O)C(=O)N[C@@H](CCCCN)C(=O)N1CCC[C@H]1C(=O)N[C@@H](CO)C(=O)N[C@@H](CO)C(=O)NCC(=O)N[C@@H](C)C(=O)N1CCC[C@H]1C(=O)N1CCC[C@H]1C(=O)N1CCC[C@H]1C(=O)N[C@@H](CO)C(=O)O)C(C)C) [AT708],0.2,9.7
EGTFISEYSI[Aib]MEKIK([AEEA-AEEA-γGlu-C18 diacid])QQEFVEWLLAQKPSSGAPPPS-OH [AT709],0.24,9.6
EGTFISEYSIAMEKIK([AEEA-AEEA-γGlu-C18 diacid])QQEFVEWLLAQKPSSGAPPPS-OH [AT710],0.73,9.1
